The numbers were not newly measured in PMC9696485, which cites them from elsewhere.

This data set concerns the target integrin α6β4 (Homo sapiens) (UniProt P23229).
UniProt P23229, sequence (P23229 24-1130, chain 1 of 2): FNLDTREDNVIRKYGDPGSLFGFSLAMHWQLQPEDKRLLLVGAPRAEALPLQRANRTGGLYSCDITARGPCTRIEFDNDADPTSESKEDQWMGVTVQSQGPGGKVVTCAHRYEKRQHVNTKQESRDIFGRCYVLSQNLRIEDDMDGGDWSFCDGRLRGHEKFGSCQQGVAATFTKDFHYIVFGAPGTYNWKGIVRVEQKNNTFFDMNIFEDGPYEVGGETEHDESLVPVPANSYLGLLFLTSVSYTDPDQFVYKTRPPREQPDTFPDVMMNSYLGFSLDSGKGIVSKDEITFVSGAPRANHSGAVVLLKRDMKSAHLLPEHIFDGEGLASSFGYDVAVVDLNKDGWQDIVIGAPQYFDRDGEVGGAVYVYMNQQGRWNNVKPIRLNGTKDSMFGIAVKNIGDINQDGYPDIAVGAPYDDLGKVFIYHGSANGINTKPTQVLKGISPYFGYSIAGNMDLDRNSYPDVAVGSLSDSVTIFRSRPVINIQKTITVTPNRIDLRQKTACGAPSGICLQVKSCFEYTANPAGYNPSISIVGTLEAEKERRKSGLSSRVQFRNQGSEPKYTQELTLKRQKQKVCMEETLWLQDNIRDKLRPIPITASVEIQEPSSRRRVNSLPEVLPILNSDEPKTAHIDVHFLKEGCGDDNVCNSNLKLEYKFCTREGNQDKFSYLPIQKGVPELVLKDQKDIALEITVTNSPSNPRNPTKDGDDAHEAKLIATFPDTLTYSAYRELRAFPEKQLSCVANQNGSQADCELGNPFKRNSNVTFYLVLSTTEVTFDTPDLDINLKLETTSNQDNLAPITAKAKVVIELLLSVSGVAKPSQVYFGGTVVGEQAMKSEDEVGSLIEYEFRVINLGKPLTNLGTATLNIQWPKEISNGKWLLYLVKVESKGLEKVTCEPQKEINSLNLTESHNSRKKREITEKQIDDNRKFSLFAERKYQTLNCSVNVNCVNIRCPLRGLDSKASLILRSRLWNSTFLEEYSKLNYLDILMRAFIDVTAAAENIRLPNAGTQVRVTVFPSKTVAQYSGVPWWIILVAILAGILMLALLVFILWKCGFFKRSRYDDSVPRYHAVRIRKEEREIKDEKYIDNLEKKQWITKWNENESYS
UniProt P23229, sequence (P16144 28-1822, chain 2 of 2, further chain): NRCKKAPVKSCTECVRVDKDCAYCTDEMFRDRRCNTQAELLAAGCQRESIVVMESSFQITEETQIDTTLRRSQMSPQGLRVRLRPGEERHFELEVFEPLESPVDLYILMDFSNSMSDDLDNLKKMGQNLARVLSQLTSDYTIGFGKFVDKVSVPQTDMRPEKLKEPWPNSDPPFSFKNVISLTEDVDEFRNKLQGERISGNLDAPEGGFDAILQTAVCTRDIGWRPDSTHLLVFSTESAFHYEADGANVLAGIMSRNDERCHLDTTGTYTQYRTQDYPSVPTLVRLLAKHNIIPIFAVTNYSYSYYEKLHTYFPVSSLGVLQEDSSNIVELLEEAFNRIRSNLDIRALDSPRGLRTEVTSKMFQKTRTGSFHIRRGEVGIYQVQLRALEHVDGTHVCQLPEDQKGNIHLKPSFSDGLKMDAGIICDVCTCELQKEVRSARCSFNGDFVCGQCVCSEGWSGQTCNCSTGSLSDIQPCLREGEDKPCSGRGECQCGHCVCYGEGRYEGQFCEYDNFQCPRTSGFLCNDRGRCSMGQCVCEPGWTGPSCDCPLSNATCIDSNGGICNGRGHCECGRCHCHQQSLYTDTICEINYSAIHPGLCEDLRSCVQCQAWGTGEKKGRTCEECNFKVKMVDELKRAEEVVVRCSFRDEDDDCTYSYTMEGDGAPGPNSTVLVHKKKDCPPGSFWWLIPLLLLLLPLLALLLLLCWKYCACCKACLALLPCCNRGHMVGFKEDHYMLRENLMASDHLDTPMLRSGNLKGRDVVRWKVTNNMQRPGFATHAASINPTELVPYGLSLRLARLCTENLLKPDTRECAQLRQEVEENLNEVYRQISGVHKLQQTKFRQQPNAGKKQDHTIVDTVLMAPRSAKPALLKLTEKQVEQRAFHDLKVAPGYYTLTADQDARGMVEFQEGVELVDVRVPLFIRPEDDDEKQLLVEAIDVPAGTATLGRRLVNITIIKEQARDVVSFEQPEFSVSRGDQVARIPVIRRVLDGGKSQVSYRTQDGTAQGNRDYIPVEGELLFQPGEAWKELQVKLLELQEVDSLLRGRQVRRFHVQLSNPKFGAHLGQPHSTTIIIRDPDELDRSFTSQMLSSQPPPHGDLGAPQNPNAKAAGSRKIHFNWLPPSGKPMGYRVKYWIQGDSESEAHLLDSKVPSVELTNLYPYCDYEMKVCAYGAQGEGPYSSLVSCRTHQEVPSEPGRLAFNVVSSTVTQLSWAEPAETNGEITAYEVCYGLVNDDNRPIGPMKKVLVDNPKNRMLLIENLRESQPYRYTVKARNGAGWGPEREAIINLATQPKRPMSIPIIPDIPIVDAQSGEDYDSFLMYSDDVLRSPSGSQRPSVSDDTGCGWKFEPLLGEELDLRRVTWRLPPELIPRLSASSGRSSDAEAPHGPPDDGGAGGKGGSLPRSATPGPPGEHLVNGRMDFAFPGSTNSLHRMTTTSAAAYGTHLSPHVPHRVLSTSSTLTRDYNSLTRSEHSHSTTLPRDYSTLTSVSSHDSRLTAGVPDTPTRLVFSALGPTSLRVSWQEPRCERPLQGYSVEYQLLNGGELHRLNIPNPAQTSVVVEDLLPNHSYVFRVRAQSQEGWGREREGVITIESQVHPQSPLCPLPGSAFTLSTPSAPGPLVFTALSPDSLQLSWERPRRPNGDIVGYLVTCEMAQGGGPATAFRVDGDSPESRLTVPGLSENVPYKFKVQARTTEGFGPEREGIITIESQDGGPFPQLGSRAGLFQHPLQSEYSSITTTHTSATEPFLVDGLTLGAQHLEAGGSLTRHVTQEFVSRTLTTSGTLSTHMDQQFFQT

As a reminder, the Kd is the equilibrium constant for the complex coming apart. Regarding AG86 laminin peptide, the Kd is 2500 nM.
